How the values were obtained:
Assay in all cases: SEC; protein alone, prior to DNA binding; Superdex 200, 20 mM Tris pH 7.5, 0.2 M NaCl, 5 mM DTT, 4 °C, 50 μL/min; peaks assigned to monomer and dimer by elution times
[1] = molecular target: full length Tgf2 transposase (L-Tgf2TPase) (goldfish (Carassius auratus))
[2] = molecular target: S1-Tgf2TPase (truncated Tgf2 transposase, 110-686 aa) (goldfish (Carassius auratus))
[3] = molecular target: S2-Tgf2TPase (truncated Tgf2 transposase, 124-686 aa) (goldfish (Carassius auratus))
[4] = molecular target: L-Tgf2TPase(D228N, E648Q) (goldfish (Carassius auratus))

Q: “full length Tgf2 transposase (L-Tgf2TPase) (enzyme)” was tested. Which stoichiometry N [1] did it give?
A: 2

Q: For “S1-Tgf2TPase (truncated Tgf2 transposase, 110-686 aa) (domain or fragment)”, which stoichiometry N [2] is on record?
A: 2

Q: How did the stoichiometry N [3] turn out when “S2-Tgf2TPase (truncated Tgf2 transposase, 124-686 aa) (domain or fragment)” was run?
A: 2

Q: How did the stoichiometry N [4] turn out when L-Tgf2TPase(D228N, E648Q) (enzyme) was run?
A: 2

— PMC4890040
